Key:
[1] = target: cellular cyclin A (endogenous, U2OS cells; associated with Cdk2) (human, UniProt P20248 1-432); test: cell-based or functional assay
[2] = target: T1, insect cell-produced and purified GST-cyclin A/Cdk2 (kinase reactions, ~3 nM) (UniProt P20248 1-432; P24941 1-298); test: cell-based or functional assay
[3] = target: T2, myc tagged cyclin A (expressed alone or cotransfected in 293T cells) (UniProt P20248 1-432); test: IP-Western with transfected 293T cell extracts (FIG. 1E)
T2 construct: domain: full-length; also called myc-cyclin A; cyclin A alone; not shown: myc tag

[4] = target: T3, Skp1, Cul-1 and myc-Roc1 (SCF subunits co-expressed with flag-Skp2 in 293T cells) (UniProt P63208 1-163; Q13616 1-776; P62877 1-108); test: co-expression in 293T cells, anti-flag IP-Western (FIG. 2A)
T3 construct: The three other subunits of the SCF complex, co-immunoprecipitated via the flag tag on Skp2; also called Skp1-Cul1-Roc1; SCF^Skp2Roc1 complex subunits; not shown: myc tag

[5] = target: T2, myc tagged cyclin A (expressed alone or …); test: cotransfection, IP-Western in 293T cells (FIG. 1A)
[6] = target: T1, insect cell-produced and purified …; test: kinase inhibition: purified proteins, ~3 nM GST-cyclin A/Cdk2, Rb-C phosphorylation, non-linear least squares (FIG. 7F)
[7] = target: T4, cyclin A 309-432 fragment (C-terminal cyclin-fold and the C-terminus) (UniProt P20248 309-432); test: GST pull-down with transfected 293T extracts (FIG. 4C)
T4 construct: In transfected 293T cell extract; not shown: myc tag

[8] = target: cyclin D1/Cdk4 (transfected 293T cell extracts) (UniProt P24385 1-295; P11802 1-303); test: GST pull-down with transfected 293T extracts (FIG. 4E)
[9] = target: Cdk2 alone (singly transfected 293T cell extract) (UniProt P24941 1-298); test: GST pull-down with singly transfected 293T extracts (FIG. 4A)
[10] = target: myc-cyclin A/Cdk2 (293T cell extracts transfected with myc-cyclin A and Cdk2) (UniProt P20248 1-432; P24941 1-298); test: GST pull-down with myc-cyclin A/Cdk2 transfected 293T extracts (FIG. 3C)

Chain of cyclin D1/Cdk4 (transfected 293T cell extracts) (P24385 whole entry, chain 1 of 2): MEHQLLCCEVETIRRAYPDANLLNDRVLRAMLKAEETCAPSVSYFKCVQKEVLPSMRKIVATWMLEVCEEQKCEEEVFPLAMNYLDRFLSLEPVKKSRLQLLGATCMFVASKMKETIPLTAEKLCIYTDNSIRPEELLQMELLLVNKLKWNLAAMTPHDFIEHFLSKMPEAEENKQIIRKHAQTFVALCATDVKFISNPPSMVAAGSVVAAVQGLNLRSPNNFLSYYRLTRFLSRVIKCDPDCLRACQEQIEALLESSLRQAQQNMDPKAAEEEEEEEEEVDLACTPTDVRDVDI
Chain of cyclin D1/Cdk4 (transfected 293T cell extracts) (P11802 whole entry, chain 2 of 2): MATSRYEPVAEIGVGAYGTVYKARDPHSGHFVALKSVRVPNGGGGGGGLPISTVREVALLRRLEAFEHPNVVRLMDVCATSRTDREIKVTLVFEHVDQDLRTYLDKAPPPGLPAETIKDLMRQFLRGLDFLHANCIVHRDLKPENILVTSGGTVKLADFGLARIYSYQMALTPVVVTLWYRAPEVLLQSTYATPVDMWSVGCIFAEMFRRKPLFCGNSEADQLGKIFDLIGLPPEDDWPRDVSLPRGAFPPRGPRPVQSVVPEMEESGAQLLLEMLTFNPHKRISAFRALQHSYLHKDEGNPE
T3 sequence (P63208 whole entry, chain 1 of 3): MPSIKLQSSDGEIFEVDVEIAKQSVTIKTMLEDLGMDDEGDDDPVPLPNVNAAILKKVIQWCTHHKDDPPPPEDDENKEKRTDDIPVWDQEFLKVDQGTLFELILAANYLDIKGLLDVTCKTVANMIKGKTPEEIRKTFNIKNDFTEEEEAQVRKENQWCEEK
T3 sequence (Q13616 whole entry, chain 2 of 3): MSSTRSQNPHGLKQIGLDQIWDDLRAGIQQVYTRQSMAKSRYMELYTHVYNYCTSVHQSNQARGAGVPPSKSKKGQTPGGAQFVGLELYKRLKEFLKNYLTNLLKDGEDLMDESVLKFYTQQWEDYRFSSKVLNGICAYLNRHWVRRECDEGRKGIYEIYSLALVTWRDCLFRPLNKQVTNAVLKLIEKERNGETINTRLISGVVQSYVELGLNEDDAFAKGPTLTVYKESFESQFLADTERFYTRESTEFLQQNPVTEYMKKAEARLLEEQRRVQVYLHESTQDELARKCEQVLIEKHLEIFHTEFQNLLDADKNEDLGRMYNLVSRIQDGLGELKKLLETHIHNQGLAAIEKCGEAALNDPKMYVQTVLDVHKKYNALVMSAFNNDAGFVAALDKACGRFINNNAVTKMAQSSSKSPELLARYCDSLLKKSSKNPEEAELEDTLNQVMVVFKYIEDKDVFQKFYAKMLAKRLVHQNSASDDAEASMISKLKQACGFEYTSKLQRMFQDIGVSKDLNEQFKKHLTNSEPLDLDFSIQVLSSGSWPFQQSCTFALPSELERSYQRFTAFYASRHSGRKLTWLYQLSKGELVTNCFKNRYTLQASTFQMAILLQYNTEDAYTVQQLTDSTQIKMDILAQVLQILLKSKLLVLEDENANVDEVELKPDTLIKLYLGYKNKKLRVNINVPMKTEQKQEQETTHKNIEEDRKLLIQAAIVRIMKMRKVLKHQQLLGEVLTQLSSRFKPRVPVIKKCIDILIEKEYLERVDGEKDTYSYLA
T3 sequence (P62877 whole entry, chain 3 of 3): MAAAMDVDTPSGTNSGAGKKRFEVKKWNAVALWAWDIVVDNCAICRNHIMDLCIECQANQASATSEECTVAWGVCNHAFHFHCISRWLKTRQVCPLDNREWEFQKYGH

YGRKKRRQRRRGKTSELLSGMGVSALEKEE [TAT-4060 peptide (HIV TAT domain fused to the 4060 peptide with a glycine linker)]
IC50 of U2OS cell killing (MTS assay, 24 hours) [1]: 35 µM

YGRKKRRQRRRGPVKRRLDL [TAT-LDL peptide (TAT fused to the E2F1-derived LDL peptide)]
in vitro cyclin A/Cdk2 kinase activity towards GST-Rb-C [2]: 10 fold
IC50 of U2OS cell killing (MTS assay, 24 hours) [1]: 7.5 µM

B1: Skp2AAAA (full-length Skp2 with the four conserved residues of the 40-60 sequence mutated to alanine, flag tagged) (other)
chain: MHVFKTPGPADAMHRKHLQEIPDLSSNVATSFTWGWDSSKTSEAASGMGVAAAEKEEPDSENIPQELLSNLGHPESPPRKRLKSKGSDKDFVIVRRPKLNRENFPGVSWDSLPDELLLGIFSCLCLPELLKVSGVCKRWYRLASDESLWQTLDLTGKNLHPDVTGRLLSQGVIAFRCPRSFMDQPLAEHFSPFRVQDMDLSNSVIEVSTLHGILSQCSKLQNLSLELRLSDPIVNTLAKNSNLVRLNLPGCPGFPKFPLQTFLSSCPRLDELNLSWCFNFTEKHVQVAVAHVSETMTQLNLSGYRKNLQKSDLSTLVRRCPNLVHLDLSNSVMLKNDCFQEFSQLNYLQHLSLSRCYDIIPETLLELGEIPTLKTLQVFGIVPDGTLQLLKEALPHLQINCSHFTTIARPTIGNKKNQEIWGIKCRLTLQKPSCL
notes: also called Skp2AAAA mutant; flag tagged Skp2AAAA; not shown: flag tag
binding result [3]: no binding
binding result [4]: binds

B2: Skp2LRR (C-terminal fragment of Skp2 divided at residue 150) (other)
chain: TLDLTGKNLHPDVTGRLLSQGVIAFRCPRSFMDQPLAEHFSPFRVQDMDLSNSVIEVSTLHGILSQCSKLQNLSLELRLSDPIVNTLAKNSNLVRLNLPGCPGFPKFPLQTFLSSCPRLDELNLSWCFNFTEKHVQVAVAHVSETMTQLNLSGYRKNLQKSDLSTLVRRCPNLVHLDLSNSVMLKNDCFQEFSQLNYLQHLSLSRCYDIIPETLLELGEIPTLKTLQVFGIVPDGTLQLLKEALPHLQINCSHFTTIARPTIGNKKNQEIWGIKCRLTLQKPSCL
notes: also called LRR fragment
binding result [5]: no binding

B3: Skp2N (eluted, GST cleaved off by thrombin) (other)
chain: MHVFKTPGPADAMHRKHLQEIPDLSSNVATSFTWGWDSSKTSELLSGMGVSALEKEEPDSENIPQELLSNLGHPESPPRKRLKSKGSDKDFVIVRRPKLN
notes: also called eluted and GST cleaved Skp2N; Skp2 N-terminus
Ki of p27 for cyclin A/Cdk2 kinase activity (Rb-C phosphorylation) in the presence of 80 nM of Skp2N [2]: ~0.08 µM
Ki [6]: ~0.52 µM

B4: GST-Skp2N (Skp2 N-terminus cloned into pGEX-2T) (other)
chain: MHVFKTPGPADAMHRKHLQEIPDLSSNVATSFTWGWDSSKTSELLSGMGVSALEKEEPDSENIPQELLSNLGHPESPPRKRLKSKGSDKDFVIVRRPKLN
notes: not shown: glutathione S-transferase (GST) moiety of vector pGEX-2T, N-terminal fusion partner
binding result [7]: no binding
binding result [8]: no binding
binding result [9]: no binding

B5: GST-Skp2N-AA45 (other)
chain: MHVFKTPGPADAMHRKHLQEIPDLSSNVATSFTWGWDSSKTSEAASGMGVSALEKEEPDSENIPQELLSNLGHPESPPRKRLKSKGSDKDFVIVRRPKLN
notes: as for B4
binding result [10]: no binding

B6: GST-Skp2N-AAA53 (other)
chain: MHVFKTPGPADAMHRKHLQEIPDLSSNVATSFTWGWDSSKTSELLSGMGVAAAEKEEPDSENIPQELLSNLGHPESPPRKRLKSKGSDKDFVIVRRPKLN
notes: Residue 52 is already alanine; not shown: glutathione S-transferase (GST) moiety of vector pGEX-2T, N-terminal fusion partner
binding result [10]: no binding

B7: Skp2NF (N-terminal fragment of Skp2 divided at residue 150) (other)
chain: MHVFKTPGPADAMHRKHLQEIPDLSSNVATSFTWGWDSSKTSELLSGMGVSALEKEEPDSENIPQELLSNLGHPESPPRKRLKSKGSDKDFVIVRRPKLNRENFPGVSWDSLPDELLLGIFSCLCLPELLKVSGVCKRWYRLASDESLWQ
notes: also called NF fragment
binding result [5]: binds

Reference: patent publication US8173604 (ALBERT EINSTEIN COLLEGE OF MEDICINE OF YESHIVA UNIVERSITY, dated 2012)
